Legend:
[1] = tested on: plasmid pET24 DNA harboring the Syn5 RNAP gene (pET24-S5RNAP); assay: Filter-binding transcription assay (3H-AMP incorporation); type: biochemical
Method: FIGS. 4A-4B depict the effect of temperature and pH on Syn5 RNAP activity. A) Temperature. B) pH. RNA polymerase activity was measured as described in Materials and Methods described herein. The reactions contained 6 mM MgCl2, 200 µM 4 rNTPs (^3H-ATP), 50 nM Syn5 RNAP and 4 nM template (pET24-S5RNAP). The pH was 8.0 for assays in A and the temperature was 24° C. for B. Reactions were terminated and the amount of AMP incorporated was measured at 3, 10, and 30 min. The AMP incorporation was linear in this time range and the data measured at 10 min are presented.
FIGS. 5A-5C depict reaction requirements for Syn5 RNAP. A) Effect of NaCl on Syn5 RNAP activity. B) Effect of KCl on Syn5 and T7 RNAP (dashed line) activity. C) MgCl2 concentration on Syn5 RNAP activity. Reactions contained 200 µM 4 rNTPs (^3H-ATP), 50 nM Syn5 RNAP and 4 nM template (pET24-S5RNAP). For A and B, reactions also contained 6 mM MgCl2. For C, 160 mM KCl was present. Reactions were terminated and the amount of AMP incorporated was measured at 2.5, 5, and 10 min. AMP incorporation was linear in this time range and the data measured at 10 min are presented.
Basic reaction mixtures contained 40 mM Tris-HCl (pH 8.0 unless otherwise specified), 2 mM spermidine, 10 mM DTT, 200 µM[…] GTP, C[…]P, UTP and ^3H-ATP (20 cpm/pmole), 1.5 U/µl RNaseOUT™, 50 nM Syn5 or T7 RNAP and 4 nM plasmid pET24 DNA harboring the Syn5 RNAP gene (pET24-S5RNAP) that contains a single Syn5 promoter in the RNAP gene and a single T7 promoter preceding the gene. Reaction mixtures were incubated at 24° C. unless otherwise specified.
For the assays described in FIG. 7, reaction mixtures contained 40 mM Tris-HCl (pH 8.0), 6 mM MgCl2, 2 mM spermidine, 10 mM DTT, 20 nM Syn5 or T7 RNAP, 20 nM pET24-S5RNAP DNA, 1 mM ^3H-ATP (20 cpm/pmole), CTP, UTP (or GTP), and varying amounts of GTP (or UTP). 160 mM KCl was added for the Syn5 RNAP reactions. After various times the reactions were stopped by the addition of 20 mM EDTA. 4 µl of the mixtures were then loaded onto Whatman DE81 filter paper disks and the disks were washed to remove the unincorporated ^3H-ATP. The amount of insoluble ^3H-AMP, corresponding to nucleotides incorporated into newly synthesized RNA, was measured using a scintillation counter. The data were analyzed using Prism software.

[2] = tested on: T7 promoter; assay: Cross recognition of promoters, gel transcription assay; type: biochemical, bacteriophage T7; settings: T7 DNA fragment with T7 Φ1.1 B promoter
Method: FIGS. 3A-3C depict characterization of the Syn5 promoter. A) Determination of the 3′-end of Syn5 promoter. 3′-dATP, 3′-dGTP, 3′-dUTP replaced ATP, GTP and UTP, respectively, as chain terminator to sequence the 5′-end of Syn5 RNAP transcript on a template same as template 1 in FIG. 2B. Once the 5′-terminus of the transcript was determined, the sequence preceding it should be the promoter and the 3′-end of the promoter can thus be defined. A 25% TBE-urea gel was used for this assay. B) Cross recognition between Syn5 and T7 transcription systems. Syn5 RNAP synthesizes runoff products on a fragment of T7 DNA provided the T7 promoter is replaced by a Syn5 promoter (lane a). Syn5 RNAP fails to produce transcripts if the first nucleotide downstream of the promoter is changed from G to T (lane b). […]
For the gel assay results shown in FIGS. 1, 2, 3, and 13, reaction mixtures (20 μl) contained 40 mM Tris-HCl (pH 7.9), 6 mM MgCl2, 2 mM spermidine, 10 mM DTT, 200 µM[…]P, GTP and UTP, 10 µM [[…]-^32P]CTP, 1.5 U/µl RNaseOUT™ recombinant ribonuclease inhibitor (Invitrogen), 100 nM Syn5 or T7 RNAP, and DNA templates as described in the figure legends (either 2 nM phage genomic DNA, 4 nM purified PCR products, or 1 µM synthetic dsDNA fragments). […] After electrophoresis, gels were dried and analyzed using a Fuji BAS 1000 Bioimaging Analyzer.

Molecule	sensitivity to ionic strength ([1]; KCl titration, FIG. 5B)	transcription from a T7 promoter [2]	potassium required for maximal activity [1] [mM]	metal ions in place of Mg2+ as cofactor ([1]; 10 mM Ca2+, Co2+, Cu2+ or Ni2+)	metal ions in place of Mg2+ as cofactor ([1]; 10 mM Zn2+ or Mn2+)	increase of activity by NaCl ([1]; 80 mM NaCl, 6 mM MgCl2)	stimulation of activity by KCl ([1]; 160 mM KCl, 6 mM MgCl2)	activity remaining ([1]; 300 mM KCl) [%]	pH of highest activity ([1]; 24° C.)	% of maximum activity ([1]; at 0° C.) [%]	% of maximum activity ([1]; at 37° C.) [%]	% of maximum activity ([1]; at 42° C.) [%]	Km ([1]; in the presence of 160 mM KCl, read-out: Km for MgCl2 as cofactor) [µM]	optimum temperature ([1]; pH 8.0, 6 mM MgCl2, 50 nM RNAP, 4 nM template) [°C]
T7 RNAP: RNA polymerase encoded by bacteriophage T7, from New England Biolabs [reference compound]	highly sensitive to the ionic strength of the reaction	initiates transcription and produces a runoff transcript												
Syn5 RNAP: single subunit DNA-dependent RNA polymerase from marine cyanophage Syn5, amino acid sequence SEQ ID NO:23 (protein, Amino acid sequence of a cyanophage Syn5 RNAP) MSFDLIARQLQRETEAAELARKRLQDARREANERSYASSNIESRKAIATFLDPIAQRIGERLFTLRRGTGAVDAAEVYKHLKNADHHHLALITMKTALDVLGKDPEPQIQQLTTAIGRNIQLELRLTYYAEENPELYKQASRFFHAGTGTRQKATVIKLKFNREGIEWDQWSRVTCHKVGQWLMLAMADVTGWIERATDRTSGGRKTKTRICYSREFLQHRDTILAAAEQLAFCQWPMLCPPIEWSNDHNGGYLSEQIRRVNPLIRKTGPLGTRKQGDIPLAMLNNLQGQAYKVNPEVLDIANHCYESNVTVGKFIRHAPLPVPPSPGEDCTEDQLTAYKRARREAEDFNAQISQKNWRTTEVMYVARKYADEASFWMPASFDYRGRVYFLNTALNPQGTDFDKALLYFAEEGPVNEWWLSFHVATTYGLDKETMVNRVQWARDNHELIDRIASDPVRHTEWHDADEPWCFLAACLEYKACVIDGTKQTSGLPIGIDATCSGLQHLAAMTRCGRTAALVNVTPTDKPADAYKTVAQASLKHLPKEQHEWITRKVTKRPVMCTPYGVTMSSARGYIRDQLVKDGHKEDLRSPGVLNGIVKAIFNEAIPEVIPGPVQVMAWLKRSAGQIIDRGDSTITWTTPSGFEVVQDLKKSKTYEVKTRIMGGARIKLQVGDGFTDEPDRDHHKSALAPNVVHSNDASLLHLTFAFWDKPFTVIHDCVLGRSCDMDQMGSDIRLHFAEMYKADVMQDWADQVGVELPVDLIKNTLDIDSVNQSLYFFS		does not recognize a T7 promoter	160	cannot replace Mg^2+	A small amount of activity	two-fold	three-fold	10	8.0	15	8	2	~2500	24

Source: patent publication US11066655B2, “RNA polymerase, methods of purification and methods of use” (President and Fellows of Harvard College, priority 2013, dated 2021)
